From IntAct's records for PubMed 18154663

B1: RalBP1-associated Eps domain-containing protein 2 (Homo sapiens), Q8NFH8 (parent)
chain: MEAAAAAAAAAAAAAAAGGGCGSGPPPLLLSEGEQQCYSELFARCAGAAGGGPGSGPPEAARVAPGTATAAAGPVADLFRASQLPAETLHQITELCGAKRVGYFGPTQFYIALKLIAAAQSGLPVRIESIKCELPLPRFMMSKNDGEIRFGNPAELHGTKVQIPYLTTEKNSFKRMDDEDKQQETQSPTMSPLASPPSSPPHYQRVPLSHGYSKLRSSAEQMHPAPYEARQPLVQPEGSSSGGPGTKPLRHQASLIRSFSVERELQDNSSYPDEPWRITEEQREYYVNQFRSLQPDPSSFISGSVAKNFFTKSKLSIPELSYIWELSDADCDGALTLPEFCAAFHLIVARKNGYPLPEGLPPTLQPEYLQAAFPKPKWDCQLFDSYSESLPANQQPRDLNRMEKTSVKDMADLPVPNQDVTSDDKQALKSTINEALPKDVSEDPATPKDSNSLKARPRSRSYSSTSIEEAMKRGEDPPTPPPRPQKTHSRASSLDLNKVFQPSVPATKSGLLPPPPALPPRPCPSQSEQVSEAELLPQLSRAPSQAAESSPAKKDVLYSQPPSKPIRRKFRPENQATENQEPSTAASGPASAATMKPHPTVQKQSSKQKKAIQTAIRKNKEANAVLARLNSELQQQLKEVHQERIALENQLEQLRPVTVL
partner: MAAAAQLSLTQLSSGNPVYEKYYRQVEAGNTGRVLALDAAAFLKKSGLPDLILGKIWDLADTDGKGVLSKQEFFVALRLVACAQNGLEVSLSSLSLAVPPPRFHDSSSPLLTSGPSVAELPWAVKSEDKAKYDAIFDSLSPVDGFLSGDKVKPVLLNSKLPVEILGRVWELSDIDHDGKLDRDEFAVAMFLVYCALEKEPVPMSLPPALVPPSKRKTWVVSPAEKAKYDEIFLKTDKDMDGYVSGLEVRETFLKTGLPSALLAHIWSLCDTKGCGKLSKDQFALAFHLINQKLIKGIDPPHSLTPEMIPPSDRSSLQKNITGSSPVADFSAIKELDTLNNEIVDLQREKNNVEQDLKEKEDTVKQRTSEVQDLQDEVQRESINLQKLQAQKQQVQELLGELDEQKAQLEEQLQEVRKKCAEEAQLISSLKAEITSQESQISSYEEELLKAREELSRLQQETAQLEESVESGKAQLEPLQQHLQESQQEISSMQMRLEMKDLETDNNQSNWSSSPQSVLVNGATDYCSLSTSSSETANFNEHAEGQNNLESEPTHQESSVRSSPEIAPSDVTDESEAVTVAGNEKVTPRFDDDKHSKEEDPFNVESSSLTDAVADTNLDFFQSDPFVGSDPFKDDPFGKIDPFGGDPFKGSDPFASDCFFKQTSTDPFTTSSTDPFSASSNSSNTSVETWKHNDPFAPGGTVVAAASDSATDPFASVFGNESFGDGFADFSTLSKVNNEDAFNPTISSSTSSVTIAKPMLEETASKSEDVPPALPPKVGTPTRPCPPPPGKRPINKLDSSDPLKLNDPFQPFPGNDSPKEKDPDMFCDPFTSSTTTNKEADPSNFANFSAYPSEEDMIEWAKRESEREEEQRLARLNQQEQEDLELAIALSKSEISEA

What was measured:
Conditions in all cases: with eps15_mouse Eps15, P42567
[1] = variants of: B1
[2] = variants of: B1; remark: listed apart in the source
[3] = variants of: B1; remark: listed apart in the source
[4] = variants of: B1; remark: listed apart in the source

effect of a mutation on the interaction [1]	effect of a mutation on the interaction [2]	effect of a mutation on the interaction [3]	effect of a mutation on the interaction [4]	Variant
decreasing interaction	disrupting interaction	–	–	K312A
–	–	decreasing interaction	–	W324A
–	disrupting interaction	–	decreasing interaction	K351A
